Assay results taken from IntAct's records for PubMed 9874765.

Target: cir1_human CIR1 (UniProt Q86X95)
Sequence (Q86X95 whole entry): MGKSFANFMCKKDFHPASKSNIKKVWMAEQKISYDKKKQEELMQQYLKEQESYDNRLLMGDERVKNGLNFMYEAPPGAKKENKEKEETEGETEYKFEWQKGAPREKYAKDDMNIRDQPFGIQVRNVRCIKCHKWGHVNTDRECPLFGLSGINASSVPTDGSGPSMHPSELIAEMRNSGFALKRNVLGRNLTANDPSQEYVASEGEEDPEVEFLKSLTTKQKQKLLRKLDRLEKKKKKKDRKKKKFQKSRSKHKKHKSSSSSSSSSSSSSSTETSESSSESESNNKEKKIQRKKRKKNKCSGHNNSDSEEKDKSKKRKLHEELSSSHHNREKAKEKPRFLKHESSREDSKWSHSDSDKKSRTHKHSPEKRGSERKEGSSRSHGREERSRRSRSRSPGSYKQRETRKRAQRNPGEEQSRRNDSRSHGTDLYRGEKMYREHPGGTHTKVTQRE

Chain of Recombining binding protein suppressor of hairless (Homo sapiens), Q06330 K249A;L250A;V251A (Q06330 whole entry K249A/L250A/V251A): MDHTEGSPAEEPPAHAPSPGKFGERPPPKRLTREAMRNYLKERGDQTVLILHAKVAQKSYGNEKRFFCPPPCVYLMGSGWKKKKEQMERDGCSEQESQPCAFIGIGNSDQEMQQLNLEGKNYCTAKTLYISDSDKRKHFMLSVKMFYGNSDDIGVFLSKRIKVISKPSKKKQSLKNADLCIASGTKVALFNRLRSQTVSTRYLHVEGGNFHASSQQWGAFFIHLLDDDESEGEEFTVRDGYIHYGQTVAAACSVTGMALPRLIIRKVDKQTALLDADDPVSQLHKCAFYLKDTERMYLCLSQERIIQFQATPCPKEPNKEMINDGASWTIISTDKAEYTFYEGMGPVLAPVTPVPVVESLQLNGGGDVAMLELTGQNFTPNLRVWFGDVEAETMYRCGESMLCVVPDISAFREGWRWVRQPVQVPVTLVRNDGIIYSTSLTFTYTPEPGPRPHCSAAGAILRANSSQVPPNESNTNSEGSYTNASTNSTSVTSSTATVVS
Chain of Recombining binding protein suppressor of hairless (Homo sapiens), Q06330 E233A;E234A;F235A (Q06330 whole entry E233A/E234A/F235A): as the sequence (Q06330 whole entry K249A/L250A/V251A) above, with E233A, E234A, F235A, A249K, A250L, A251V counted along it

Recombining binding protein suppressor of hairless (Homo sapiens), Q06330 K249A;L250A;V251A
effect of a mutation on the interaction: disrupting interaction strength

Recombining binding protein suppressor of hairless (Homo sapiens), Q06330 E233A;E234A;F235A
effect of a mutation on the interaction: disrupting interaction strength
